Entries after “also recorded” stand apart in the source; their conditions may differ.
Test system: prk6 pollen tubes transformed with PRK6 ΔN239I240
Assay: Wavy assay, prk6 pollen tubes transformed with ΔN239I240 PRK6
Format: cell-based, Arabidopsis
Conditions: 250 nM wild-type AtLURE1.2 in medium
Protocol: Attraction activities of mutant AtLURE1.2 peptides were examined for semi-in-vivo pollen tubes growing through cut, pollinated pistils by gelatin-beads assay and wavy assay, [20]. For the gelatin-beads assay, pollen tubes were grown on solid pollen germination medium poured into a mold made with 1-mm thick silicone rubber and cover glasses. After hand-pollination, the topside cover glass was removed and the medium was covered with hydrated silicone oil (KF-96–100CS; Shin-Etsu). Attraction of pollen tubes toward the peptide was evaluated using AtLURE1 peptide containing gelatine beads under an inverted microscope (IX71, Olympus) equipped with a micro-manipulator (Narishige). For the AtLURE1-responsive wavy assay, the purified AtLURE1.2 peptide was added to solid pollen germination medium, which was melted at 70 °C and then cooled to a certain degree. The mixture was mixed by vortexing and poured into the mold. Pollen tubes of each genotype were grown through cut styles, as mentioned above. Each peptide (25 μM in 10 mM Bis-Tris (pH 6.0) and 100 mM NaCl) was diluted to 250 nM by cultivation medium in both assays. […]
pollen tubes. Fluorescence is from mRuby2 fused to the C-terminal of PRK6 receptors, showing that all of mutant PRK6 receptors localize normally to the plasma membrane of the pollen tube tip. […]

B1: AtLURE1.2: mature form of AtLURE1.2 (residues 20–90), defensin-like cysteine-rich peptide expressed in insect cells (protein)
chain: TLINGSSDEERTYSFSPTTSPFDPRSLNQELKIGRIGYCFDCARACMRRGKYIRTCSFERKLCRCSISDIK
modifications: left off: His6, N-terminal, cleaved | SUMO, N-terminal, cleaved
notes: mature form of AtLURE1.2 (residues 20–90), defensin-like cysteine-rich peptide expressed in insect cells
wavy and branched pollen tube behavior: branched behavior is not observed; also recorded: greatly compromised

— publication PMC5673899, “Structural basis for receptor recognition of pollen tube attraction peptides” (Nature Communications, 2017)
